# T1: 人OX40 (expressed on cells: transfected 293T cells; HEK::OX40 100B5 cells) (human, UniProt P43489 29-277)
# T1 construct: whole, on cells; also called hOX40
# T1 sequence (looked up): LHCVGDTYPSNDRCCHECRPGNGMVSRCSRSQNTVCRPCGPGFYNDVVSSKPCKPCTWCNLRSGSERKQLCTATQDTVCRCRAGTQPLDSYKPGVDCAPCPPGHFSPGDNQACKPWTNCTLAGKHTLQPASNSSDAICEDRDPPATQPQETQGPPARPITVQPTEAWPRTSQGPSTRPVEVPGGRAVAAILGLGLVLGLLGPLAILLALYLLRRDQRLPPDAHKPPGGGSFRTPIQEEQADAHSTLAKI
# Biological target: T1, 人OX40 (expressed on cells: transfected …)
# Assay: Flow cytometry on 293T cells expressing human OX40, antibody 1 µg/mL final, APC anti-mouse IgG Fc
row,binding result,Binder
1,binds,"抗OX40单克隆抗体6A6 (antibody, V domains shown, Mouse hybridoma monoclonal antibody) VH: EVQLQQSGPELVKPGASVKISCKASGYSFTGYYMNWVKQSPEKSLEWIGEINPSTGGTTYNQKFKAKATLTVDKSSSTAYMQLKSLTSEDSAVYYCARSGLPYYDVDYWGQGTTLTVSS VL: DIQMTQSPSSLSASLGERVSLTCRASQEISGYLSWLHQKPDGTIKRLIYAASTLDSGVPKRFSGSRSGSDYSLTISSLESEDFADYYCLQYASYPLTFGAGTNLELK"
2,binds,"抗OX40单克隆抗体4F2 (antibody, V domains shown, Mouse hybridoma monoclonal antibody (Balb/c x SP2/0); Constant regions are mouse; it was detected with anti-mouse IgG Fc and mIgG1 served as isotype control) VH: DVQLQESGPGLVKPSQSLSLTCSVTGYSITSGYNWNWIRQFPGNKLEWMGYISYDGSNNYNPSLKNRISITRDTSKNQFFLKLNSVTTEDTATYYCARQGSSGHFYYAMDYWGQGTSVTVSS VL: DIVMTQAHKFMSTSVGDRVSITCKASQDVSSAVAWYQQKPGQSPKLLIYWASIRHTGVPDRFTGSGSGTDYTLTISSVQAEDLALYYCQQHYSTPWTFGGGTKLEIK"
